Assay results taken from patent publication US20180031566A1 (VENTANA MEDICAL SYSTEMS, published 2018).
Blank lines part the entries; values can stand above or below the binder they belong to.

Key:
[1] = molecular target: T1, recombinant protein for uPAR-Like domain 1 of C4.4a (amino acids 31-116) (human, UniProt O95274 31-116); experiment: ELISA with recombinant domain proteins
T1 construct: Recombinant domain used in ELISA
T1 sequence: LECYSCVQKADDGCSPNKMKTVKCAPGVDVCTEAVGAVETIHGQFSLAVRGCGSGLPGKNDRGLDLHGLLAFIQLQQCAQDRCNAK

[2] = molecular target: T2, recombinant protein for uPAR-like domain 2 of C4.4a (amino acids 139-224) (human, UniProt O95274 139-224); experiment: ELISA with recombinant domain proteins
T2 construct: Recombinant domain used in ELISA
T2 sequence: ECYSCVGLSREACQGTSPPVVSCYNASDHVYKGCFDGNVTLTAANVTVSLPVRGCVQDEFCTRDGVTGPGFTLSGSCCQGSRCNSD

binding result [1]: binds
B1: anti-C4.4a antibody clone S20H1L1 (antibody, V domains shown)
VH: QEQLEESGGGLVKPGGTLTLTCTASGFSLISTYYICWVRQAPGKGLEWIGCIPLSHSVSWYANWVNGRFSISKTSSTTVTLKMASLTDADTATYFCGRGSSGWGVDSKLWGPGTLVTVSS
VL: AVLTQTPSPVSASVGGTVTINCQSSPSVASGYLSWFQQKPGQPPKLLIYRASTLVSGVPSRFKGSGSGTHFTLTISDVQCDDAATYYCAGAYSSRSDTTFGGGTEVVVK
notes: Rabbit monoclonal antibody; also called SP245 (a S20H1L1 clone)

binding result [2]: binds
B2: anti-C4.4a antibody clone S42H9L5 (antibody, V domains shown)
VH: QSLEESGGRLVKPDETLTLTCTVSGFSLNTVAISWVRQAPGKGLEWIGFIHPTVNTYYARWAKGRFTISRASSTTVDLKVTSLTFEDAATYFCVRGNAHYDIWGPGTLVTVSL
VL: AFELTQTPSLVSAAVGGTVTISCQSSQSVYSDNYLAWYQQKPGQRPKLLIYKASDLASGVPSRFKGSGSGTEFTLTISDLECADAATYYCQSYYGVSSDSNAFGGGTEVVVK
notes: Rabbit monoclonal antibody; also called SP246 (a S42H9L5 clone)
